This note sets out measurements from article PMC6044470.

For this assay, the target named is Chaetomium thermophilum Cdc48 (Chaetomium thermophilum). Put plainly: cryo-EM structure.

What is called stoichiometry N is the number of molecules, sites or subunits per partner or assembly.

Chaetomium thermophilum Cdc48 (enzyme) showed a stoichiometry N of 6.

Take “Ufd1/Npl4 heterodimer (UN) from Chaetomium thermophilum (complex)”: the stoichiometry N is 1.
